In the supplement of paper PMC10567573:

B1: FAM107A (parent)
chain: LQRVLEHRRRNQLIKKKKEELEAK
B2: SERPINB5 (parent)
chain: FPESETKECPFRVNKVCGAACSSK

Variants of: B1
Assay: protein stability index of a GFP-peptide fusion (GPS, HEK-293T) (PSI 1-6); higher = more stable
Conditions: c terminus: a fixed tail appended
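Also: lentivirally expressed fusions sorted by FACS into six bins by GFP to DsRed ratio, PSI derived from sequencing read proportions per bin multiplied by bin number.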

Protein stability index: each site, then its substitutions
K18: W 3.1, F 4.52, Q 3.04, L 2.81, N 3.41, I 2.74, M 3.57, S 3.62, P 4.37, V 3.21, T 3.93, D 4.4, A 4.54, E 3.89, Y 3.11, C 3.37, H 3.67
K15: I 3.24, Y 3.51, D 3.61, S 3.86, E 4.74, T 3.87, R 3.34, N 4, L 3.84, C 3.52, A 4.16, Q 3.7, G 4.49, P 4.18, H 4.23, M 3.98
K17: D 4.78, V 3.25, M 3.16, Q 3.8, A 3.44, F 3.73, Y 3.37, C 2.8, E 4.31, H 3.52, I 2.58, T 4.38, L 3.5, G 4.27, W 3.74
K16: D 4.44, M 3.09, Q 3.82, R 3.04, A 4.15, E 3.94, I 3.28, W 3.58, C 3.26, S 4, G 4.52, T 3.85, N 4.07, Y 2.41, H 3
E19: L 1.86, D 4.2, T 3.19, S 3.13, C 2.46, M 3.19, Y 3.23, I 3.12, P 3.41, V 2.7, K 2.97, Q 2.56, N 2.98, H 2.87, F 2.22, R 2.56
L13: S 3.72, F 3.83, P 4.07, E 4.54, Y 3.37, C 3.3, H 4.18, M 3.83, T 3.32, Q 3.73, G 4.31, N 3.6, A 3.51, D 3.29, V 3.08, I 3.76, K 3.43
L21: N 4.16, P 3.46, S 3.92, I 2.78, H 3.77, Y 2.46, M 3.32, W 3.18, G 3.63, A 3.88, R 4.14, D 4.01, Q 3.48, V 3.36, C 3.3, K 2.99, T 3.74, F 2.71
Q12: F 2.66, E 4.11, S 3.11, R 4.07, Y 2.8, K 4, A 4.05, P 4.12, N 3.1, G 2.85, V 3.45, I 3.74, M 3.45, W 1.5, T 3.66, H 3.5, L 2.2, D 3.74
K24: H 3.33, V 3.91, G 3.63, D 3.89, P 3.44, A 3.62, I 3.57, S 3.97, F 3.75, M 3.3, Q 3.9, N 3.77, T 3.97, R 2.61, Y 2.62, W 2.88, E 4.35, L 3.04, C 4.22
N11: T 3.38, Q 3.09, P 3.24, E 4.16, M 3.4, Y 2.97, V 3.25, I 2.97, S 3.6, L 2.65, G 3.57, W 1.93, H 3.23, F 2.72, K 3.62
I14: Y 3.28, H 3.44, R 3.66, P 3.31, C 3.42, S 3.92, D 4.39, Q 3.62, E 4.18, M 4.54, L 3.24, V 4.25, F 4.1, T 3.71, N 3.74
E22: L 3.08, G 3.33, S 2.96, I 2.58, Q 3.59, D 2.62, K 4.21, M 2.83, W 2.75, N 2.82, T 3.51, P 2.77, C 2.54, Y 3.26, A 3.44, H 2.33, V 2.88, F 2.59, R 2.26
E20: L 3.03, F 2.52, A 3.12, I 3.35, H 2.83, Q 2.12, Y 2.94, K 3.34, G 2.42, M 3.5, V 3.58, W 2.29, P 3.74, N 3.35, S 3.99, T 3.45, D 3.71
A23: Q 3.87, H 2.76, W 4.26, E 4.14, N 3.56, T 3.11, D 3.75, S 3.63, C 2.98, I 2.75, Y 3.48, V 3.03, R 3.48, M 3.39, G 3.7, L 3.99, K 2.86

Variants of: B2
Assay: as above
Conditions: c terminus: a fixed tail appended

Protein stability index: each site, then its substitutions
K24: H 2.81, C 3.31, G 2.57
A19: W 2.08, D 3.03, R 2.52, T 2.62, Q 2.7
E3: M 1.45
S23: D 2.78, N 2.96, E 3.16, G 2.4, L 2.4, Y 2.29, V 2.42
P10: N 4.02, C 3.05, D 4.78
R12: M 2.86, V 2.43
V16: T 2.71, E 3.12
C9: E 4.84, K 4.37, F 1.81, Y 2.92, P 4.51, I 4.39
S4: E 4.53, I 2.72, H 2.62, G 2.25, N 3.17, W 2.03
P2: T 2.26, Q 3.73, D 4.73, G 3.59, V 2.13, E 4.59
K15: N 2.24, I 2.12, F 2.12, W 1.32
E5: T 2.11, A 1.88, F 1.6
F1: A 4.46, W 3.85, T 2.73, D 5.41
T6: Y 2.28, M 2.63, G 2.09
N14: H 3.27, S 2.45, I 1.96, R 2.17, Y 2.19
S22: W 2.03, F 1.66, I 2.27, V 2.1, D 2.66, Y 2.46, R 2.36, T 2.39
K7: D 3.22, R 2.88, I 2.55
F11: R 4.67
A20: N 3.18, I 2.32, G 3.22
C21: N 2.44, L 2.2, E 3.19
C17: M 2.49, K 3.12, R 2.48, W 1.76
V13: G 3.81, K 3.93, F 2.59, L 3.19, Y 2.03
E8: N 2.17, G 1.9, V 2.59, T 2.6, C 2.23, D 2.16, R 1.82
G18: H 2.59, N 2.59, Q 2.66, E 2.6, K 3.24, D 2.89
